From patent US20250368684A1, “NEW EGFRVIII-BINDING PEPTIDES, CONJUGATES AND USES THEREOF” (NANOTHERA BIOSCIENCES, INC., priority 2021, published 2025)
No end group written: not given here. *: point of attachment. FITC = O=C1OC2(c3ccc(O)cc3Oc3cc(O)ccc32)c2ccc(NC(=S)*)cc21; Ahx = NCCCCCC(=O)O

Columns and labels:
293T cells = experiment: Flow cytometry cellular binding of FITC-Ahx-peptides on 293T cells; parameters: species or system human; conditions: 10 µM FITC-Ahx-peptide, 20 min at RT
From the text: (§1) 293T human embryo kidney cells (Sigma; #85120602-1VL), CLTH/EGFR WT cells (Celther; #CL 01010-CLTH) and CLTH/EGFRvIII cells (Celther; #CL 01001-CLTH) were purchased from Sigma and Celther accordingly. CLTH/EGFR WT and CLTH/EGFRvIII cell lines are established from human embryo kidney cells to stably express EGFR WT and EGFRvIII proteins respectively. The three types of cells were maintained in Dulbecco's modified Eagle media (high glucose) supplemented with 10% fetal bovine serum (FBS), 100 U/mL penicillin, […] streptomycin and 1% MEM NEAA. The cells were cultured at 37° C. in a humidified atmosphere containing 5% CO2.
(§2) On FITC-Ahx-peptides. Flow cytometry analysis was also performed to quantitatively analyze the binding affinity of the synthetized peptides to the different cell types. Briefly, 293T, CLTH/EGFR WT and CLTH/EGFRvIII cells (100 000 cells, 500 μL) were plated in 24-well plates and incubated overnight at 37° C. in a humidified atmosphere containing 5% CO2 overnight. […] Cells were analyzed by flow cytometry on a MACSQuant Analyser 16 (Miltenyi Biotec) using the MACS Quantify software to acquire and process the data. LIVE/DEAD™ Fixable dye was excited at 640 nm and fluorescence was collected with the 785/62 nm filter. FITC was excited at 488 nm and fluorescence was collected with the 525/50 nm filter. Viable cells were gated, FITC fluorescence intensity was recorded and the mean fluorescence intensity (MFI) was measured. MFI values were then normalized by substracting MFI from blank cells and dividing by the correction factor determined using a spectrofluorimeter.
Since FITC fluorescence can be impacted by the nature of the amino acids in the peptide sequence and since the conjugation rate of FITC in the peptide synthesis can fluctuate, it was needed to measure a correction factor according to the fluorescence intensity of each peptide. As flow cytometry cannot analyze fluorescence of small molecules, a spectrofluorimeter was used in similar conditions (excitation and emission) to the flow cytometry conditions. […] Linear regressions were determined for each peptide. […]

[1] = target: T1, EGFRvIII cells (expressing EGFRvIII) (Homo sapiens, UniProt P00533, DELINS30-297G); experiment: Flow cytometry cellular binding of FITC-Ahx-peptides on EGFRvIII cells; conditions: for Normalized MFI vIII: 10 µM FITC-Ahx-peptide, 20 min at RT, EGFRvIII cells
T1 construct: host or cells: CLTH/EGFRvIII, established from human embryo kidney cells
From the text: as §1, §2
Since FITC fluorescence can be impacted by the nature of the amino acids in the peptide sequence and since the conjugation rate of FITC in the peptide synthesis can fluctuate, it was needed to measure a correction factor according to the fluorescence intensity of each peptide. As flow cytometry cannot analyze fluorescence of small molecules, a spectrofluorimeter was used in similar conditions (excitation and emission) to the flow cytometry conditions.

[2] = target: T2, EGFR WT cells (expressing EGFR WT) (Homo sapiens, UniProt P00533); experiment: Flow cytometry cellular binding of FITC-Ahx-peptides on EGFR WT cells; conditions: 10 µM FITC-Ahx-peptide, 20 min at RT
T2 construct: host or cells: CLTH/EGFR WT, established from human embryo kidney cells
From the text: as §1
as §2, with “types.” for “types. Briefly, 293T, CLTH/EGFR WT and CLTH/EGFRvIII cells (100 000 cells, 500 μL) were plated in 24-well plates and incubated overnight at 37° C. in a humidified atmosphere containing 5% CO2 overnight.”, “spectrofluorimeter. […]” for “spectrofluorimeter.”

[3] = target: T3, CLTH/EGFRvIII cells expressing hEGFRvIII (Homo sapiens, UniProt P00533, DELINS30-297G); experiment: Flow cytometry binding of phage displayed peptides on hEGFRvIII cells; conditions: phage displayed peptide, vs hEGFR WT and 293T cells
T3 construct: host or cells: CLTH/EGFRvIII, established from human embryo kidney cells
From the text: as §1
Cell cultures and flow cytometry experiments with phages or peptides were performed by Institut Mondor de Recherche Biomédicale (IMRB U955, France). […] Anti-IgG1 conjugated to phycoerythrin (PE) (Miltenyi Biotec) was used as a secondary antibody to read the fluorescence of PE. […]
On phages. […] Cells were analyzed by flow cytometry on a MACSQuant Analyser 16 (Miltenyi Biotec) using the MACS Quantify software to acquire and process the data. Viobility™ 405/520 fixable dye was excited at 405 nm and fluorescence was collected with the 525/50 nm filter. PE was excited at 488 nm and fluorescence was collected with the 579/34 nm filter. Viable cells were gated, and PE fluorescence intensity was recorded.

[4] = target: human EGF receptor variant III (EGFRvIII) on CLTH/EGFRvIII cells (human) (UniProt P00533); experiment: flow cytometry, 10 uM FITC-Ahx-peptide, 20 min RT, CLTH/EGFRvIII cells; MFI minus blank cells, divided by correction factor
[5] = target: human EGF receptor variant III (EGFRvIII) on CLTH/EGFRvIII cells (human) (UniProt P00533); experiment: flow cytometry, normalized MFI on EGFRvIII cells over normalized MFI on EGFR WT cells
[6] = target: human wild type EGF receptor (EGFR WT) on CLTH/EGFR WT cells (human) (UniProt P00533); experiment: flow cytometry, 10 uM FITC-Ahx-peptide, 20 min RT, CLTH/EGFR WT cells; MFI minus blank cells, divided by correction factor
[7] = target: T4, human EGF receptor variant III (EGFRvIII) on CLTH/EGFRvIII cells (human, UniProt P00533 25-1210); experiment: flow cytometry, phage on CLTH/EGFRvIII cells, anti-M13-biotin plus anti-biotin-PE
T4 construct: whole, on cells

## FITC-Ahx-YHWYGYTPENVI-CONH2: literature control peptide YHWYGYTPENVI (SEQ ID NO:6) linked to the FITC-Ahx tag ({FITC-Ahx}-YHWYGYTPENVI-NH2; SMILES CC[C@H](C)[C@H](NC(=O)[C@@H](NC(=O)[C@H](CC(N)=O)NC(=O)[C@H](CCC(=O)O)NC(=O)[C@@H]1CCCN1C(=O)[C@@H](NC(=O)[C@H](Cc1ccc(O)cc1)NC(=O)CNC(=O)[C@H](Cc1ccc(O)cc1)NC(=O)[C@H](Cc1c[nH]c2ccccc12)NC(=O)[C@H](Cc1c[nH]cn1)NC(=O)[C@H](Cc1ccc(O)cc1)NC(=O)CCCCCNC(=S)Nc1ccc2c(c1)C(=O)OC21c2ccc(O)cc2Oc2cc(O)ccc21)[C@@H](C)O)C(C)C)C(N)=O)
293T cells
  Normalized MFI 293T: 7.6
[1]
  Normalized MFI vIII: 9.7
[2]
  Normalized MFI WT: 4.5

## FITC-Ahx-FALGEA-CONH2: literature control peptide FALGEA (SEQ ID NO:5) linked to the FITC-Ahx tag ({FITC-Ahx}-FALGEA-NH2; SMILES CC(C)C[C@H](NC(=O)[C@H](C)NC(=O)[C@H](Cc1ccccc1)NC(=O)CCCCCNC(=S)Nc1ccc2c(c1)C(=O)OC21c2ccc(O)cc2Oc2cc(O)ccc21)C(=O)NCC(=O)N[C@@H](CCC(=O)O)C(=O)N[C@@H](C)C(N)=O)
293T cells
  Normalized MFI 293T: 0.9
[1]
  Normalized MFI vIII: 1.8
[1]; normalized MFI of vIII cell line over WT cell line
  Normalized MFI ratio VIII/WT: 2.6
[2]
  Normalized MFI WT: 0.7

## NESGITRIALQD (Peptide selected from the NGS analysis, not showing specific binding to hEGFRvIII cells in flow cytometry) [peptide selected from NGS analysis of biopanning]
[3]
  specific binding to hEGFRvIII: did not show specific binding

## FITC-Ahx-VLGREEWSTSW-CONH2: VLGREEWSTSYW conjugated with FITC at the N-terminus via 6-aminohexanoic acid (Ahx) linker
293T cells
  Normalized MFI 293T: 5.1

## LEKGNTLSTSTV (phage displayed; Peptide selected from the NGS analysis, not showing specific binding to hEGFRvIII cells in flow cytometry) [peptide selected from NGS analysis of biopanning]
[3]
  specific binding to hEGFRvIII: did not show specific binding

B1: FITC-Ahx-FALGEA-CONH2 (peptide)
peptide: {FITC-Ahx}-FALGEA-NH2
SMILES: CC(C)C[C@H](NC(=O)[C@H](C)NC(=O)[C@H](Cc1ccccc1)NC(=O)CCCCCNC(=S)Nc1ccc2c(c1)C(=O)OC21c2ccc(O)cc2Oc2cc(O)ccc21)C(=O)NCC(=O)N[C@@H](CCC(=O)O)C(=O)N[C@@H](C)C(N)=O
[4]
  Normalized MFI: 1.8
[5]
  Normalized MFI ratio vIII/WT: 2.6

B2: FITC-Ahx-…-CONH2 (peptide)
peptide: {FITC-Ahx}-YHWYGYTPENVI-NH2
SMILES: CC[C@H](C)[C@H](NC(=O)[C@@H](NC(=O)[C@H](CC(N)=O)NC(=O)[C@H](CCC(=O)O)NC(=O)[C@@H]1CCCN1C(=O)[C@@H](NC(=O)[C@H](Cc1ccc(O)cc1)NC(=O)CNC(=O)[C@H](Cc1ccc(O)cc1)NC(=O)[C@H](Cc1c[nH]c2ccccc12)NC(=O)[C@H](Cc1c[nH]cn1)NC(=O)[C@H](Cc1ccc(O)cc1)NC(=O)CCCCCNC(=S)Nc1ccc2c(c1)C(=O)OC21c2ccc(O)cc2Oc2cc(O)ccc21)[C@@H](C)O)C(C)C)C(N)=O
[6]
  Normalized MFI: 4.5

B3: LEKGNTLSTSTV phage displayed peptide (peptide)
peptide: LEKGNTLSTSTV
modifications: also: displayed on M13 phage coat protein
notes: not shown: M13 coat protein of the Ph.D.-12 library that carries the peptide
[7]
  binding result: no binding

B4: NESGITRIALQD phage displayed peptide (peptide)
peptide: NESGITRIALQD
modifications: also: displayed on M13 phage coat protein
notes: as for B3
[7]
  binding result: no binding
